Measurements: PMC7618119

What was measured:
[1] = target: human μ-opioid receptor-RlucII (human) (UniProt P35372)
[2] = target: rat HA-μ-opioid receptor (rat) (UniProt P33535)
[3] = target: human μ-opioid receptor (AtT20FlpInMOR cells) (human) (UniProt P35372)

UniProt P33535, sequence (P33535 whole entry): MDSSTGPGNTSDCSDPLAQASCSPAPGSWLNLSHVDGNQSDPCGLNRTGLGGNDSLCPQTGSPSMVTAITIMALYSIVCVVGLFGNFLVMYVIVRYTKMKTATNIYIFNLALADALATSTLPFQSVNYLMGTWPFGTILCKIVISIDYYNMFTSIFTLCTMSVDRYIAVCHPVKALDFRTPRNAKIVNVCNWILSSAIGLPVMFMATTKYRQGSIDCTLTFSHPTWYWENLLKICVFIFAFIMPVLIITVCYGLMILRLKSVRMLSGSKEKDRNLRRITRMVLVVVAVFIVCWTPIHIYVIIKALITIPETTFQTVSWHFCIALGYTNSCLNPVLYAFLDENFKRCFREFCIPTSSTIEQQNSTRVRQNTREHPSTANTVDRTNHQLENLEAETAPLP

β-arrestin 2 translocation BRET (μ-opioid receptor-RlucII with β-arrestin-2-GFP) in HEK293T cells, agonist pEC50, first set (log M (printed under pEC50)) [1]: -6.12 | β-arrestin 2 translocation BRET (μ-opioid receptor-RlucII with β-arrestin-2-GFP) in HEK293T cells, agonist pEC50, second set (log M (printed under pEC50)) [1]: -6.33 | Gi protein activation BRET (decrease of BRET between Gαi1-RlucII and GFP10-Gγ2) in HEK293T cells, agonist pEC50, first set (log M (printed under pEC50)) [2]: -6.82 | Gi protein activation BRET (decrease of BRET between Gαi1-RlucII and GFP10-Gγ2) in HEK293T cells, agonist pEC50, second set (log M (printed under pEC50)) [2]: -6.99 | apparent rate constant of dissociation (koff): decay of the membrane potential response to the EC75 concentration after naloxone 10 μM, AtT20 cells [3]: > 0.126 s⁻¹ | apparent rate of dissociation (t1/2): decay of the membrane potential response to the EC75 concentration after naloxone 10 μM, AtT20 cells [3]: < 5.5 s | membrane potential dye fluorescence (hyperpolarisation) in μ-opioid receptor-expressing AtT20 cells, agonist pEC50, first set of experiments (log M (printed under pEC50)) [3]: -7.98 | membrane potential dye fluorescence (hyperpolarisation) in μ-opioid receptor-expressing AtT20 cells, agonist pEC50, second set of experiments (log M (printed under pEC50)) [3]: -8.12
Substance: [D-Ala^2, N-MePhe^4, Gly-ol]-enkephalin (peptide)
